Experimental data from the Human Domainome abundance scans (Beltran et al. 2025).

B1: GAS2-like protein 1, residues 209 to 276; numbered along this chain, Q99501 (parent)
chain: DELVREILGRCTCPDQFPMIKVSEGKYRVGDSSLLIFVRVLRSHVMVRVGGGWDTLEHYLDKHDPCRC

Variants of: B1
Experiment: abundance fitness (aPCA) (normalised: wild type 0, dead -1); higher = more abundant; growth selection in yeast, the domain comes from the species named
Details: Homo sapiens

Abundance fitness, by site and new letter:
C11: Y -0.892
C13: M -0.786 | P -0.972 | L -0.719 | E -0.726 | F -0.894 | K -1.13 | R -0.851 | D -0.752 | A -0.974 | W -0.922 | S -0.728 | I -0.304 | Q -0.869 | Y -0.744 | V -0.306 | T -0.817 | G -0.682 | H -0.874
Q16: H -0.486 | V -0.269 | F -0.623 | T -0.11 | Y -0.848 | A -0.224 | K 0.113 | E -0.42 | G -0.131 | M -0.276 | N -0.634 | I -0.351 | S -0.172 | P 0.131
E24: T -0.579 | S -0.254 | V -0.505 | Q 0.041 | C -0.588 | D 0.062 | A -0.099 | P -0.246 | R -0.417 | L -0.715 | H -0.193 | W -0.422
M19: H -0.429 | A -0.539 | K -0.527 | E -1.02 | N -0.74 | F 0.171 | R -0.516 | S -0.895 | L -0.011 | I -0.345 | T -0.96 | P -1.05 | D -1.18 | Q -0.961 | C -0.664 | W -0.121 | G -0.845
V29: K -0.855 | Q -0.501 | S -0.422 | F -0.163 | T -0.531 | A -0.34 | I 0.129 | M -0.187 | W -0.551 | Y -0.489 | E -0.978 | H -0.188 | C -0.213 | N -0.793 | G -0.807 | R -0.305 | P -0.985
P18: G -0.475 | S -0.043 | M -0.501 | R -0.012 | F -0.645 | N -0.15 | Y -0.669 | H -0.222 | E -0.132 | D -0.207 | L -0.471 | K 0.026 | C -0.512 | I -0.524 | W -0.809 | Q 0.011
D31: F -0.303 | S -0.07 | P -0.066 | W -0.153 | L -0.141 | Q 0.048 | K -0.162 | T 0.059 | V -0.146 | G -0.066 | R -0.087 | E 0.007 | N 0.084 | C -0.146 | M -0.148 | I -0.144 | Y -0.181 | A -0.06 | H 0.039
K21: V -0.791 | G -0.689 | N -0.828 | H -0.426 | C -0.543 | M -0.297 | I -0.981 | D -0.804 | A -0.748 | W -0.397 | P -0.646 | T -0.739 | Q -0.254 | E -0.396 | R 0.01 | Y -0.525 | S -0.747 | L -0.541
T12: W -0.831 | V -0.267 | N -0.355 | M -0.419 | S -0.181 | I -0.313 | L -0.664 | C -0.247 | E -0.381 | H -0.542 | Q -0.193 | D -0.797 | P -0.749 | Y -0.8 | K -0.169
S32: E 0.013 | D 0.098 | I -0.755 | H -0.16 | M -0.252 | Q -0.044 | R -0.142 | K -0.175 | P -0.121 | T -0.026 | V -0.596 | G -0.085 | A -0.064 | F -0.749 | N -0.071
D15: C -0.188 | T 0.125 | M 0.046 | A 0.04 | Y -0.151 | R 0.018 | N 0.087 | I 0.014 | G -0.379 | E 0.101 | V 0.054 | Q -0.002 | K 0.034 | W -0.32 | F -0.259 | L -0.058 | H 0.017 | S 0.026 | P -0.964
F17: M -0.777 | T -0.858 | I -0.846 | R -0.865 | W -0.741 | Q -0.88 | C -1 | K -0.831 | Y 0.098 | S -0.925 | G -0.743 | V -0.768 | L -0.667 | A -0.955
G30: P -0.506 | K -0.371 | M -0.432 | D -0.337 | S -0.53 | N -0.526 | L -0.605 | F -0.927 | E -0.862 | A -0.35 | R -0.302 | H -0.653 | C -0.532 | V -0.646 | W -0.952 | Q -0.603 | T -0.569 | I -0.803
I20: H 0.167 | Y 0.054 | P -0.917 | F -0.096 | A -0.216 | W 0.008 | N -0.111 | C -0.366 | K -0.037 | V -0.021 | G -0.498 | R -0.009 | L -0.151 | Q 0.026 | S -0.207 | E -0.016
V22: G -0.916 | I -0.035 | R -0.428 | F -0.518 | T -0.662 | D -0.327 | L -0.323 | P -0.971 | C -0.365 | A -0.311 | S -0.848 | Y -0.795 | H -0.26 | M -0.251
S23: N -0.483 | A -0.023 | W -0.53 | I -0.861 | V -0.674 | H -0.325 | L -0.809 | C -0.031 | E 0.099 | F -0.83 | K -0.336 | P -0.914 | G 0.013 | D 0.028 | Q -0.141 | M -0.47 | R -0.359 | T -0.036
P14: C -0.439 | T -0.136 | S -0.162 | N -0.424 | M -0.457 | W -0.816 | R -0.147 | V -0.213 | Q -0.161 | K 0.016 | F -0.509 | I -0.336 | A -0.142 | G -0.502
G25: D -0.07 | E -0.345 | K -0.739 | W -0.58 | C -0.236 | I -1.07 | Q -0.13 | R -0.328 | L -0.914 | Y -0.388 | P -0.809 | N -0.116 | S -0.158 | F -0.366 | V -0.961
Y27: R -0.85 | F -0.579 | I -0.287 | G -0.891 | P -0.866 | W 0.079 | M -0.597 | T -0.855 | S -0.861 | L -0.849 | C -0.874 | V -0.996
R28: I -0.208 | G -0.944 | C -0.159 | H -0.549 | K -0.07 | T -0.467 | M 0.041 | W -0.403 | L -0.05 | Q -0.265 | E -0.516 | Y -0.341 | F -0.668 | N -0.857 | A -0.235 | P -0.964 | V -0.15
K26: A -0.063 | G -0.589 | R 0 | F -0.013 | W 0.132 | C 0.204 | M -0.213 | N -0.317 | E -0.418 | H -0.035 | V 0.177 | L -0.145 | Q 0.237 | T 0.149 | S -0.075
